Results: patent publication US9988424 (DUKE UNIVERSITY, dated 2018)

Tests used:
B.Case A2 V1/V2 tags [1] = test: ELISA, OD405 at 10 ug/ml
C.CAP206 gp140CF.12 = C.CAP206 gp140CF.12 (HIV-1); test: ELISA, OD405 at 10 ug/ml
A.Q23 V1V2 tags = A.Q23 V1V2 tags (HIV-1); test: ELISA, OD405 at 10 ug/ml
gp70 C.1086 V1/V2 = target: T1, gp70 C.1086 V1/V2 (HIV-1 V1V2 on murine leukemia virus gp70); test: ELISA, OD405 at 10 ug/ml
T1 construct: also called C.gp70 1086C V1V2; C.1086gp70V1V2
T1 chain: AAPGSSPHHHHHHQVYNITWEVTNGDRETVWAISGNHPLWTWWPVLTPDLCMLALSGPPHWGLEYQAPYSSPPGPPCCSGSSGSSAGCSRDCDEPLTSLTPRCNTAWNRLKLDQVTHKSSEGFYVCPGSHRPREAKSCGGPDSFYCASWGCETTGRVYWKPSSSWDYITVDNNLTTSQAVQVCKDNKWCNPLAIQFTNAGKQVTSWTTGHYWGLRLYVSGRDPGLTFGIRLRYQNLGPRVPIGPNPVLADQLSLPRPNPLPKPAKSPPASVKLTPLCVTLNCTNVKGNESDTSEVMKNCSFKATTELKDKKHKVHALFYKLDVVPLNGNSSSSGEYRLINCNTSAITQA

B.63521_V1/V2 tags = test: ELISA, OD405 at 10 ug/ml
B.9021 gp140C = B.9021 gp140C (HIV-1); test: ELISA, OD405 at 10 ug/ml
AE.97CNG2XF gp140CF = target: T2, AE.97CNG2XF gp140CF (HIV-1); test: ELISA, OD405 at 10 ug/ml
T2 construct: also called E.97CNGX2F gp140CF

SIV CPZ US-1 gp140CF = target: T3, SIV CPZ US-1 gp140CF (SIVcpz); test: ELISA, OD405 at 10 ug/ml
T3 construct: also called US-1 SIVCPZ gp140CF
T3 chain: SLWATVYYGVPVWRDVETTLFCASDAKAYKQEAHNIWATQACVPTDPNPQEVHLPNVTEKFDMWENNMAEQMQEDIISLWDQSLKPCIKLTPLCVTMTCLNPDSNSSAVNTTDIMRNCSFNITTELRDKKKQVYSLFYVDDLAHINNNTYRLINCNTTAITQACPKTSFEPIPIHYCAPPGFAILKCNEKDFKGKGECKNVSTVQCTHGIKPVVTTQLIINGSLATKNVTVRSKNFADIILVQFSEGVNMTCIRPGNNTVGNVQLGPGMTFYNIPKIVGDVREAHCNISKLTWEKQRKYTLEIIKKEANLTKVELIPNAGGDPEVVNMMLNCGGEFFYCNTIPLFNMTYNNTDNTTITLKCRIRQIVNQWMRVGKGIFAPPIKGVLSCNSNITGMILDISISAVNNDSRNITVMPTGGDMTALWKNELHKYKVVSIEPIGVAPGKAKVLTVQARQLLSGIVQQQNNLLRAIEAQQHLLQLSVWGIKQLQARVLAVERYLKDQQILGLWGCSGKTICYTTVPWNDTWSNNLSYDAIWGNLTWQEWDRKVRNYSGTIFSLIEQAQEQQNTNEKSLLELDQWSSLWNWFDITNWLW

C.1086 gp140 = target: T4, C.1086 gp140; test: ELISA, OD405 at 10 ug/ml
T4 construct: also called C.1086gp140C

AE.A244 V1V2 Tags = AE.A244 V1V2 Tags (HIV-1); test: ELISA, OD405 at 10 ug/ml
B.con gp140CF = test: ELISA, OD405 at 10 ug/ml
G.con gp140CF = test: ELISA, OD405 at 10 ug/ml
AE.A244 gp120 delta 11 = target: T5, AE.A244 gp120 delta 11 (HIV-1); test: ELISA, OD405 at 10 ug/ml
T5 construct: also called E.A244gp120Δ11; AE.A244 Δ11 gp120

gp70 B.CaseA2 V1/V2 = target: T6, gp70 B.CaseA2 V1/V2 (HIV-1 V1V2 on murine leukemia virus gp70); test: ELISA, OD405 at 10 ug/ml
T6 construct: also called B.gp70CaseA2 V1/V2; gp70 B.CaseAV1V2
T6 chain: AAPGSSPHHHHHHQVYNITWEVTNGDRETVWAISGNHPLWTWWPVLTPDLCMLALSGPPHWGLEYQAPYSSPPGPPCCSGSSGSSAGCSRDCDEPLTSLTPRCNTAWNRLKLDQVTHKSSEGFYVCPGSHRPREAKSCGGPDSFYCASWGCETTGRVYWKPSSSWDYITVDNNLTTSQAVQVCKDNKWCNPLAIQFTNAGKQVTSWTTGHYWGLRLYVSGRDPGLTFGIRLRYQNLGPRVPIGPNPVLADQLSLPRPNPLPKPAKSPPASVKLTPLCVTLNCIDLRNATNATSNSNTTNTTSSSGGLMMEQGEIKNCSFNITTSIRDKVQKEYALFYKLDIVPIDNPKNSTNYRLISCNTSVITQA

B.HXB/BAL gp140CFI = target: T7, B.HXB/BAL gp140CFI (HIV-1, UniProt P04578 33-680); test: ELISA, OD405 at 10 ug/ml
T7 construct: also called B.HxB/Ba gp140 CFI

AE.con gp140CF = test: ELISA, OD405 at 10 ug/ml
D.9009SA V1/V2 tags = test: ELISA, OD405 at 10 ug/ml
Con 6 gp120 = test: ELISA, OD405
B.Case A2 V1/V2 Tags [2] = target: T8, B.Case A2 V1/V2 Tags; test: ELISA, OD405
T8 Env construct: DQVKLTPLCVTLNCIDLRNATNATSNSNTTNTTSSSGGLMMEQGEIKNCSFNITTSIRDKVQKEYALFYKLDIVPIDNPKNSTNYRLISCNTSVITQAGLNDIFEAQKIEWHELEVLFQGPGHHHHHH

B.62357 140C = target: T9, B.62357 140C; test: ELISA, OD405
T9 construct: also called B.62357 gp140C

Measured: binding result

B1: PG9 reverted unmutated ancestor antibody (antibody, V domains shown)
VH: QVQLVESGGGVVQPGRSLRLSCAASGFTFSSYGMHWVRQAPGKGLEWVAVISYDGSNKYYADSVKGRFTISRDNSKNTLYLQMNSLRAEDTAVYYCAREAGGPDYRNGYNYYDFWSGYYNYYYMDVWGKGTTVTVSS
VL: QSALTQPASVSGSPGQSITISCTGTSSDVGSYNLVSWYQQHPGKAPKLMIYEVSKRPSGVSNRFSGSKSGNTASLTISGLQAEDEADYYCCSLTSTRRWVFGGGTKLTVL
notes: also called PG9 RUA; PG9_RUA
not listed: Con 6 gp120 | B.Case A2 V1/V2 Tags [2] | B.62357 140C
no binding (tested: 10 ug/ml): all other assays above

B2: CH59 reverted unmutated ancestor antibody (antibody, V domains shown)
VH: EVQLVESGGGLVQPGRSLRLSCAASGFTFDDYAMHWVRQAPGKGLEWVSGISWNSGSIGYADSVKGRFTISRDNAKNSLYLQMNSLRAEDTALYYCAKDSPRGELPFDYWGQGTLVTVSS
VL: SYELTQPPSVSVSPGQTARITCSGDALPKKYAYWYQQKSGQAPVLVIYEDSKRPSGIPERFSGSSSGTMATLTISGAQVEDEADYYCYSTDSSGNHRVFGGGTKLTVL
notes: also called CH59 RUA; CH59_RUA
no binding (tested: 10 ug/ml): Con 6 gp120 | B.Case A2 V1/V2 Tags [2] | B.62357 140C
